Experimental data published in US20260070974A1 (NONA BIOSCIENCES SUZHOU, published 2026).
Where “and” joins values, the source holds several entries; their conditions need not be identical. Equal values may be shown once.

T1: human Siglec-15 ECD-his protein (Acrobiosystems, Cat #: SG5-H52H3) (human, UniProt Q6ZMC9 20-263)
T1 construct: Bought protein; only its extracellular domain stood in the assay; also called human Siglec-15 protein; recombinant human Siglec-15 protein; not shown: his tag
T1 sequence: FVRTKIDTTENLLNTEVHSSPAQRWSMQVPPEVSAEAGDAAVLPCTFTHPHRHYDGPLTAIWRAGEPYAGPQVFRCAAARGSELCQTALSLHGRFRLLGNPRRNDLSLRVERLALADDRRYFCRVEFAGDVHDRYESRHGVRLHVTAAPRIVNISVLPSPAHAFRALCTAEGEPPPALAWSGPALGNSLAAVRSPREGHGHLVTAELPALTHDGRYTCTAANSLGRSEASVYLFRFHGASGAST

T2: human Siglec-15 on CHO-K1/human Siglec-15 cells (KYinno, Beijing) (human, UniProt Q6ZMC9 20-328)
T2 sequence: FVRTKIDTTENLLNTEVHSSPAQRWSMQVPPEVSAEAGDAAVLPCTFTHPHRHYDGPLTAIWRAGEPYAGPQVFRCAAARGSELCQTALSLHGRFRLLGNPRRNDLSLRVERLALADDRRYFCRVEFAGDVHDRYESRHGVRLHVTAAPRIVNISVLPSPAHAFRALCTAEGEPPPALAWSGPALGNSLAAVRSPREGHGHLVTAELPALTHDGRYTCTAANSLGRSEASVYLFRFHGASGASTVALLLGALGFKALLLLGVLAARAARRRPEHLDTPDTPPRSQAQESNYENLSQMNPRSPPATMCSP


Assays:
[1] = biological target: T1, human Siglec-15 ECD-his protein …; experiment: ELISA, coated human Siglec-15 ECD-his
Description: […] human Siglec-15 ECD-his protein (Acrobiosystems, Cat #: SG5-H52H3) dissolved in PBS was added to an ELISA plate at 100 μL/well for coating and the plate was incubated overnight at 4° C. The ELISA plate was then blocked with PBST (PBS+0.05% Tween 20) containing 2% BSA at 200 μL/well and incubated at 37° C. for 1 h. The ELISA plate was washed 4 times with PBST. The anti-Siglec-15 antibody diluted in a gradient (5-fold dilution, starting concentration: 6.67 nM) was added to the ELISA plate at 100 μL/well and the plate was incubated at 37° C. for 1 h. The ELISA plate was washed 4 times with PBST. The goat anti-human IgG (H+L)-HRP (1:5000, Jackson, Cat #: 109-035-088) was added at 100 μL/well and the plate was incubated at 37° C. for 1 h. The ELISA plate was washed 4 times with PBST. The TMB substrate (Biopanda, Cat #: TMB-S-003) was added at 100 μL/well, and the plate was incubated at room temperature for 5 min, and then the stop buffer (Solarbio, Cat #: C1058) was added at 100 μL/well to stop the reaction.

[2] = biological target: T1, human Siglec-15 ECD-his protein …; experiment: BLI (Octet RED96), antibody on AHC sensor, Siglec-15 ECD-his as analyte
Description: Recombinant Human Siglec-15 Protein Affinity was determined using an Octet RED96 instrument (ForteBio) and an anti-human IgG Fc capture sensor (AHC biosensor, ForteBio, Cat #: 18-5060) according to the detailed procedures and methods provided by the manufacturer. Specifically, candidate antibodies were each diluted to a final concentration of 6 µg/mL and directly immobilized on AHC biosensors for kinetic measurements. The antigenic protein Siglec-15 ECD-his protein (Acrobiosystems, Cat #: SG5-H52H3) was diluted with 10× Kinetics buffer to 3 concentrations of 60 nM, 30 nM, and 15 nM separately and injected as the analyte for 120 s with a dissociation time of 400 s and then subjected to regeneration with 10 mM glycine HCl (pH 1.5) for 15 s. The association rate (kon) and dissociation rate (kdis) were calculated using a simple one-to-one Languir binding model (Octet Red96 data analysis software). The equilibrium dissociation constant (kD) was calculated as the ratio of kdis/kon.

[3] = biological target: T2, human Siglec-15 on CHO-K1/human …; experiment: flow cytometry on CHO-K1/human Siglec-15 cells
Description: CHO-K1/human Siglec-15 cells (KYinno, Beijing) were adjusted to a density of 1×10⁶/mL with PBS, and the cell suspension was added to a 96-well V-bottom plate at 100 μL/well. The 96-well V-bottom plate was centrifuged at 1000 rpm for 5 min and washed once with PBS+2% FBS. The cells were resuspended in […] of antibody diluted in a gradient (5-fold dilution, starting concentration: 500 nM) and incubated at 4° C. for 1 h, and PR300066 and hIgG1 were used as positive control and negative control, respectively. After 1 h, the cells were washed twice with PBS+2% FBS. The cells were incubated with 100 μL of Alexa Fluor 488 goat anti-human IgG (Jackson, Cat #: 109-545-098) at 4° C. for 1 h in the dark and then washed twice with PBS+2% FBS. The cells were then resuspended in 200 μL of PBS+2% FBS. The fluorescence intensity of the cells was analyzed using a BD FACSCanto™ II flow cytometer.

Binder | EC50 [1] | Kd [2] | koff [2] | kon [2] | EC50 [3] | Maximum (MFI) [3] [MFI]
PR300066 (Tab) (antibody, human IgG1, kappa, V domains shown, variable region from clone 5G12 of WO 2018/057735A1, on human IgG1/kappa constant regions; also called 5G12) VH: QVQLQQPGAELVKPGASVKMSCKASGYTFTSYWITWVIQRPGQGLEWIGDIYCGSDTMHYNEKFKNKATLTVDTSSSTAYMQLSSLTSEDSAVYYCARWWDYGSSYDYFDYWGQGTTLTVSS VL: DIKMTQSPSSMYASLGERVTITCKASQDINSYLSWFQQKPGKSPKTLIYRANRLVDGVPSRFSGSGSGQDYSLTISSLEYEDMGIYYCLQYDEFPYTFGGGTKLEIKR | 0.022 nM and 0.021 nM and 0.012 nM | 0.13 nM and 0.293 nM | 9.5e-05 s⁻¹ and 0.000182 s⁻¹ | 730000 M⁻¹ s⁻¹ and 621000 M⁻¹ s⁻¹ | 3.66 nM and 2.2 nM and 1.64 nM | 
PR301289 (antibody, human IgG1, kappa, V domains shown, Parent of the PTM variants PR301289-1 and -2) VH: QVQLVQSGAEVKKPGASVKVSCRASGYTFTSYDINWVRQATGQGLEWMGWMNPHSGDTGYAQNFQGRVTMTWNTSISTAYMELSSLRSEDTAVYYCARRRVGVYYYGMDVWGQGTTVTVSS VL: ENVLTQSPGTLSLSPGERATLSCRASQSVSSSYFGWYQQKPGQAPRLLIYGASSRATGIPDRFSGSGSGTDFTLTISRLEPEDFAVYYCQQYGSSPITFGQGTRLEIKR | 0.027 nM and 0.058 nM | 0.173 nM | 6.47e-05 s⁻¹ | 373000 M⁻¹ s⁻¹ | 1.04 nM | 29200
PR301286 (antibody, human IgG1, kappa, V domains shown, Parent of the PTM variants PR301286-1, -3, -5, -6, -7) VH: QVQLVESGGGVVQPGKSLRLSCAASGFTFSSYGMHWVRQAPGKGLEWVAVIWIDGSNRYYAASVKGRFTISRDNSKNTLYLQMNSLRAEDTAVYYCTRGYGDYAYVMDVWGQGASVTVSS VL: DIVMTQSPLSLPVTPGEPASISCRSSQSLLPGNGYNYLDWYLQKPGQSPQLLIYLGSNRASGVPDRFSGSGSGTDFTLKISRVEAEDVGIYYCMQALQSPLTFGGGTKVEIKR | 0.027 nM and 0.018 nM and 0.022 nM | < 0.001 nM | < 1e-07 s⁻¹ | 368000 M⁻¹ s⁻¹ and 292000 M⁻¹ s⁻¹ | 1.98 nM | 24200
PR301285 (antibody, human IgG1, kappa, V domains shown) VH: QVQLQESGPGLVKPSETLSLTCTVSGGSMISYYWSWLRQPPGKGLEWIGYIYYSGNTNYNPSLKSRITIAVDTSKNQFSLKLNSVTAADTAVYYCARERELHPYYFDYWGQGTLVTVSS VL: DIQLTQSPSFLSASVGDRVTITCRASQGIDNYLAWYQQKPGKAPKVLIYAASTLQSGVPSRFSGSGSGTEFTLTISSLQPEDFATYYCQQLNSYPLTFGGGTKVEIKR | 0.031 nM | < 0.001 nM | < 1e-07 s⁻¹ | 529000 M⁻¹ s⁻¹ | 0.553 nM | 20300
